Data as given in patent US9255270B2, “Methods used in sensitizing invasive glioblastoma to therapeutic treatment” (Translational Genomics Research Institute, priority 2009, dated 2016).

Legend:
[1] = test system: Akt-Ser473 phosphorylation; test: Western blot of Akt-Ser473 phosphorylation in TWEAK-treated glioma cells; format: cell-based, Human
Description: (§1) Human astrocytoma cell lines T98G, U87, U118, SNB19 (American Type Culture Collection) and SF767 (University of California at San Francisco) were maintained in Dulbecco's modified Eagle's medium (DMEM)+10% heat inactivated fetal bovine serum (FBS) in a 37° C., 5% CO2 atmosphere. In all assays treated with TWEAK, cells were cultured in reduced serum (0.5% FBS) for 16 h prior to stimulation with recombinant TWEAK at 100 ng/ml in DMEM+0.1% BSA for the indicated times.
(§2) Immunoblotting and protein determination experiments were performed as described previously (See Reference 11). In some experiments, TWEAK (100 ng/ml) was preincubated with 2.5 μg/ml soluble Fn14-Fc decoy receptor or control Fc protein at 37° C. for 15 min before adding it to cells (See Reference 26). Also, in some cases, cells were pretreated with the PI3K inhibitor LY294002 (10 μM) for 10 min prior to TWEAK addition. For immunoprecipitation, cells were lysed on ice for 10 min in a buffer containing 10 mM Tris-HCl, pH 7.4, 0.5% Nonidet P-40, 150 mM NaCl, 1 mM phenylmethylsulfonyl fluoride, 1 mM EDTA, 2 mM sodium vanadate, 10 μg/ml aprotinin, and 10 μg/ml leupeptin (Sigma). […] Samples were then resuspended in 2×SDS sample buffer and boiled in the presence of 2-mercaptoethanol (Sigma), separated by SDS-PAGE, transferred to nitrocellulose for 1 h at 4° C., and proteins were detected as described previously (See Reference 27). […]
Referring now to FIG. 1, T98G and SF767 glioma cells were treated with TWEAK and then harvested at the indicated times. Protein lysates were analyzed by Western blotting using antibodies to Akt Ser-473, total Akt, and α-tubulin. […] Total cell lysates were collected after 10 min of TWEAK treatment and analyzed for phosphorylated Akt-473, total Akt, and α-tubulin. […] Cells were treated with TWEAK for 10 minutes and protein lysates were analyzed for phosphorylated Akt-473, total Akt, Rac1 and α-tubulin. […]

Akt1 = test: Immunoprecipitation with isoform-specific antibody, immunoblot for phospho Akt-473; format: cell-based, Human; settings: T98G cells; TWEAK 10 min
Description: as §2
(§3) The protein expression of Akt1 and Akt2 across five different glioma cell lines was assessed. […]
(§4) Akt1 and Akt2 are expressed in glioma cell lines and are phosphorylated in TWEAK stimulated cells. Referring now to FIG. 10: T98G, SNB19, SF767, U87, and U118 cell lysates were analyzed for endogenous levels of Akt1 and Akt2 by Western blotting. To monitor gel loading, α-tubulin protein levels were also analyzed. […]

Akt2 = test: as above; format: cell-based, Human; settings: T98G cells; TWEAK 10 min
Description: as §2, §3, §4

[2] = test system: T98G and SF767 glioma cells; test: Apoptotic assay (nuclear morphology of DAPI stained cells); format: cell-based, Human
Description: as §1
Apoptotic cells were evaluated by nuclear morphology of DAPI stained cells as described previously (See Reference 11). Briefly, cells with condensed, fragmented chromatin were manually scored as apoptotic cells. At least five fields (total of 1000 cells) were evaluated, and data reported as apoptotic cells/total cells×100. Verification of apoptotic cells was conducted by co-immunofluorescence staining using a monoclonal antibody against activated cleaved caspase 3. At least 1000 cells per treatment were evaluated for condensed chromatin and activated caspase 3 (See Reference 11).
TWEAK stimulation of glioma cell survival depends on Akt2 function. SiRNA specific for Akt1 (FIG. 12) and Akt2 (FIG. 13) suppress expression of Akt1 and Ak2 protein in both. T98G and SF767 glioma cells. […] After 72 hours, protein lysates were collected and analyzed by Western blotting for Akt1, Akt2 and α-tubulin. […] Cells with condensed, fragmented chromatin were manually scored as apoptotic cells. At least 10 fields (total of 1000 cells) were evaluated and data reported as apoptotic cells/total cells×100. […]
(§5) In FIGS. 18 and 19, TWEAK-induced BAD phosphorylation on serine 136 is dependent upon Akt2 function. […] Cellular lysates were collected and analyzed for phosphorylated BAD Ser-136 and total BAD by ELISA. […] After 72 hours protein lysates were collected and analyzed by Western blotting for BAD and α-tubulin. […] Cells with condensed, fragmented chromatin were manually scored as apoptotic cells. At least 10 fields (total of 1000 cells) were evaluated and data reported as apoptotic cells/total cells×100. […]

[3] = test system: BAD (Ser 136) phosphorylation; test: PhosphoBAD (Ser 136) sandwich ELISA; design: species or system Human; settings: cell-based ELISA; glioma cells
Description: Phosphorylation levels of BAD (Ser 136) were determined using a cell-based ELISA. Glioma cells were transfected with siRNA oligonucleotides against AKT1, AKT2, or non-mammalian GL2 luciferase control siRNA and incubated overnight. The cells were cultured overnight in DMEM with 0.5% FBS prior to TWEAK or control PBS addition in DMEM with 0.1% BSA for 15 min. Total cellular lysates were collected according to manufacturer's instructions utilizing the PathScan Sandwich ELISA kit (Cell Signaling). Each sample (100 μg total protein) was diluted 1:1 in sample buffer for a final volume of 200 μL prior to addition to the designated microstrip wells previously coated by the manufacturer with a BAD rabbit monoclonal capture antibody. The microstrips were then sealed and incubated overnight at 4° C. on a plate shaker. […] Stop solution was omitted and absorbance read at 600 nm (See Reference 29).
as §5

B1: TWEAK: recombinant TWEAK, TNF superfamily ligand of the Fn14 receptor, used at 100 ng/ml (protein)
chain: SAPKGRKTRARRAIAAHYEVHPRPGQDGAQAGVDGTVSGWEEARINSSSPLRYNRQIGEFIVTRAGLYYLYCQVHFDEGKAVYLKLDLLVDGVLALRCLEEFSATAASSLGPQLRLCQVSGLLALRPGSSLRIRTLPWAHLKAAPFLTYFGLFQVH
Akt-Ser473 phosphorylation after TWEAK treatment (immunoblot of whole cellular lysates) ([1]; TWEAK 100 ng/ml, T98G and SF767 glioma cells): induction of Akt-Ser473 phosphorylation
duration of TWEAK treatment after which Akt-Ser473 phosphorylation diminished ([1]; TWEAK treatment, T98G and SF767): more than 1 hour
time after which phosphorylation of Akt-Ser473 was detected ([1]; TWEAK treatment, both T98G and SF767 cell lines): 5 min
induction of phosphorylation of Akt1 following TWEAK treatment (Akt1): two-fold induction
induction of phosphorylation of Akt2 following TWEAK treatment (Akt2): two-fold induction
effect of TWEAK pretreatment on apoptosis by cytotoxic or chemotherapeutic agents in cells with BAD expression suppressed ([2]; BAD siRNA transfected glioma cells): still protected glioma cells from apoptosis
effect of TWEAK pretreatment on TMZ induced cell death ([2]; TWEAK 100 ng/ml 2 hours before TMZ 200 μM): suppressed TMZ induced cell death
effect of TWEAK pretreatment on cytotoxic therapy-induced apoptosis ([2]; TWEAK 100 ng/ml 2 hours before TRAIL or camptothecin, control siRNA cells): abrogated cytotoxic therapy-induced apoptosis
amount of phosphorylated BAD-Ser136 upon TWEAK stimulation [3]: increased approximately two-fold
amount of total BAD upon TWEAK stimulation [3]: did not change significantly
